Experimental data as given in US20250122306A1 (SUTRO BIOPHARMA, published 2025).

target: tissue factor reagent of the Tissue Factor Activity Assay Kit (Abcam #ab108906) (UniProt P13726 33-295, limits assumed); test: cell-based or functional assay
Sequence (P13726 33-295 limits assumed): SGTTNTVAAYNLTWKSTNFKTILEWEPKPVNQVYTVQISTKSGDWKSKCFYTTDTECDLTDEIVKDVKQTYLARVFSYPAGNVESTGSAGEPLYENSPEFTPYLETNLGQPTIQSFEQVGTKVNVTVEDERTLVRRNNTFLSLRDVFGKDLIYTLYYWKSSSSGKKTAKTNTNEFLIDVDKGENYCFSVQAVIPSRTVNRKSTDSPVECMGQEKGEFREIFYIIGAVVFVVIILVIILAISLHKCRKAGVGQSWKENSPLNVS

| FX conversion (% inhibition), 1000 nM antibody | Binder |
| --- | --- |
| 32.1% | SRP2900-D02 (antibody, IgG1, V domains shown) VH: EVQLVESGGGLVQPGGSLRLSCAASGFTISDYWIHWVRQAPGKGLEWVGYIDPYNGYTYYADSVKGRFTISADTSKNTAYLQMNSLRAEDTAVYYCARDYGSLQVFIDHWGQGTLVTVSS VL: not shown |
| 33.6% | SRP2900-D05 (antibody, IgG1, V domains shown) VH: EVQLVESGGGLVQPGGSLRLSCAASGFAIANYWIHWVRQAPGKGLEWVGYIDPYNGYTYYADSVKGRFTISADTSKNTAYLQMNSLRAEDTAVYYCARDYGSLEVSLDYWGQGTLVTVSS VL: not shown |
| 48.7% | SRP2900-E03 (antibody, IgG1, V domains shown) VH: EVQLVESGGGLVQPGGSLRLSCAASGFTISDYWIHWVRQAPGKGLEWVGYIDPQNGWTYYADSVKGRFTISADTSKNTAYLQMNSLRAEDTAVYYCARDYGSLEVSLDYWGQGTLVTVSS VL: not shown |
| 51.4% | SRP2900-D11 (antibody, IgG1, V domains shown) VH: EVQLVESGGGLVQPGGSLRLSCAASGFTISDYWIHWVRQAPGKGLEWVGYIDPYNGYTYYADSVKGRFTISADTSKNTAYLQMNPLRAEDTAVYYCARDYGSLQVQLDYWGQGTLVTVSS VL: not shown |
| 40.4% | SRP2900-E01 (antibody, IgG1, V domains shown) VH: EVQLVESGGGLVQPGGSLRLSCAASGFTISDYWIHWVRQAPGKGLEWVGYIDPSNGYTYYADSVKGRFTISADTSKNTAYLQMNSLRAEDTAVYYCARDYGSLQVFIDYWGQGTLVTVSS VL: not shown |
| 37.4% | SRP2900-D03 (antibody, IgG1, V domains shown) VH: EVQLVESGGGLVQPGGSLRLSCAASGFTISQYWIHWVRQAPGKGLEWVGYIDPYNGYTYYADSVKGRFTISADTSKNTAYLQMNSLRAEDTAVYYCARDYGSLQVQLDYWGQGTLVTVSS VL: not shown |
| 37% | SRP2900-D10 (antibody, IgG1, V domains shown) VH: EVQLVESGGGLVQPGGSLRLSCAASGFTISDYWIHWVRQAPGKGLEWVGFIDPKNGYTYYADSVKGRFTISAGTSKNTAYLQMNSLRAEDTAVYYCARDYGSLQVFIDYWGQGTLVTVSS VL: not shown |
| 30% | SRP2900-D09 (antibody, IgG1, V domains shown) VH: EVQLVESGGGLVQPGGSLRLSCAASGFTISGYWIHWVRQAPGKGLEWVGYIDPANGFTYYADSVKGRFTISADTSKNTAYLQMNSLRAEDTAVYYCARDYGSIQVFLDYWGQGTLVTVSS VL: not shown |
| 46.2% | SRP2900-D06 (antibody, IgG1, V domains shown) VH: EVQLVESGGGLVQPGGSLRLSCAASGFTISDYWIHWVRQAPGKGLEWVGYIDPQNGWTYYADSVKGRFTISADTSKNTAYLQMNSLRAEDTAVYYCARDYGSLTINLDYWGQGTLVTVSS VL: not shown |
| 46% | SRP2900-D04 (antibody, IgG1, V domains shown) VH: EVQLVESGGGLVQPGGSLRLSCAASGFTISDYWIHWVRQAPGKGLEWVGFIDPYNGYTYHADSVEGRFTISADTSKNTAYLQMNSLRAEDTAVYYCARDYGSLQVQLDYWGQGTLVTVSS VL: not shown |
| 44.9% | SRP2900-D08 (antibody, IgG1, V domains shown) VH: EVQLVESGGGLVQPGGSLRLSCAASGFTISDYWIHWVRQAPGKGLEWVGYIDPYNGYTYYADSVKGRFTISADTSKNTAYLQMNSLRAEDTAVYYCARDYGSLEVSLDYWGQGTLVTVSS VL: not shown |
| 47.4% | SRP2900-D07 (antibody, IgG1, V domains shown) VH: EVQLVESGGGLVQPGGSLRLSCAASGFTISDYWIHWVRQAPGKGLEWVGYIDPSNGYTYYADSVKGRFTISADTSRNTAYLQMNSLRAEDTAVYYCARDYGSLEVSLDYWGQGTLVTVSS VL: not shown |
| 37% | SRP2900-A01 (antibody, IgG1, V domains shown) VH: EVQLVESGGGLVQPGGSLRLSCAASGFTISSYWIHWVRQAPGKGLKWVGYIDPYNGATYYADSVKGRFTISADTSKNTAYLQMNSLRAEDTAVYYCARADYYYVDEYFDYWGQGTLVTVSS VL: not shown |
